Source: patent publication US20010016194A1 (published 2001)

Assays:
[1] = biological target: T1, Raf-1 proteins present in human T-cell lysates (human, UniProt P04049 1-648); test: anti-FLAG affinity column pull-down from 35S-labelled human T-cell lysate, anti-SP-63 immunoblot
T1 construct: Endogenous protein within a cell lysate, so other lysate proteins were present; also called T-cell derived Raf-1 proteins; cellular Raf-1 serine/threonine kinase

[2] = biological target: T1, Raf-1 proteins present in human T-cell …; test: anti-FLAG bead pull-down from T-cell lysate, anti-Raf-1 immunoblot
(His)6-Raf-1 protein = biological target: T2, (His)6-Raf-1 protein (UniProt P04049 1-648, limits assumed); test: totally cell-free pull-down on anti-FLAG beads, anti-Raf-1 immunoblot
T2 construct: Made in M15 bacteria and purified on Ni-NTA, or used as bacterial lysate; also called bacterially produced (His)6-Raf-1
Description: Eluted proteins were separated on SDS-PAGE, transferred onto Immobilon membrane and blotted with anti-Raf-1 antibody.

| binding result [1] | binding result [2] | binding result ((His)6-Raf-1 protein) | Binder |
| --- | --- | --- | --- |
| binds | – | – | FLAG-HMK-IL-2Rβ chain cytoplasmic domain wild type fusion protein (receptor, not shown: small tags and cut ends, Made in BL-21 pLysS bacteria, about 33 kDa; also called FLAG-HMK-IL-2Rβ chain wild type (WT); FLAG-HMK-IL-2Rβ-WT) NCRNTGPWLKKVLKCNTPDPSKFFSQLSSEHGGDVQKWLSSPFPSSSFSPGGLAPEISPLEVLERDKVTQLLLQQDKVPEPASLSSNHSLTSCFTNQGYFFFHLPDALEIEACQVYFTYDPYSEEDPDEGVAGAPTGSSPQPLQPLSGEDDAYCTFPSRDDLLLFSPSLLGGPSPPSTAPGGSGAGEERMPPSLQERVPRDWDPQPLGPPTPGVPDLVDFQPPPELVLREAGEEVPDAGPREGVSFPWSRPPGQGEFRALNARLPLNTDAYLSLQELQGQDPTHLV |
| – | no binding | no binding | FLAG-HMK-IL-2Rβ chain mutant lacking both acidic domain and proline rich C-terminal (A-CT-) (receptor, How it was constructed is not described; also called FLAG-HMK-IL-2Rβ S+; not shown: 17 amino acid FLAG-HMK tag) NCRNTGPWLKKVLKCNTPDPSKFFSQLSSEHGGDVQKWLSSPFPSSSFSPGGLAPEISPLEVLERDKVTQLLL |
| – | no binding | – | FLAG-HMK-IL-2Rβ chain containing only the proline rich C-terminal (CT+) (receptor, How it was constructed is not described; also called FLAG-HMK-IL-2Rβ chain CT+ proteins; not shown: 17 amino acid FLAG-HMK tag) QPLSGEDDAYCTFPSRDDLLLFSPSLLGGPSPPSTAPGGSGAGEERMPPSLQERVPRDWDPQPLGPPTPGVPDLVDFQPPPELVLREAGEEVPDAGPREGVSFPWSRPPGQGEFRALNARLPLNTDAYLSLQELQGQDPTHLV |
